The target in test [1] is fibronectin from human plasma (human). The test can be described thus: single-molecule force spectroscopy.
In test [2] the target is salivary agglutinin (SAG) glycoprotein complex (UniProt Q9UGM3). The test can be described thus: single-cell force spectroscopy.
The target is the same in test [3]. Nature of the test: single-molecule force spectroscopy.

UniProt Q9UGM3, sequence (Q9UGM3 whole entry, looked up, one chain of several): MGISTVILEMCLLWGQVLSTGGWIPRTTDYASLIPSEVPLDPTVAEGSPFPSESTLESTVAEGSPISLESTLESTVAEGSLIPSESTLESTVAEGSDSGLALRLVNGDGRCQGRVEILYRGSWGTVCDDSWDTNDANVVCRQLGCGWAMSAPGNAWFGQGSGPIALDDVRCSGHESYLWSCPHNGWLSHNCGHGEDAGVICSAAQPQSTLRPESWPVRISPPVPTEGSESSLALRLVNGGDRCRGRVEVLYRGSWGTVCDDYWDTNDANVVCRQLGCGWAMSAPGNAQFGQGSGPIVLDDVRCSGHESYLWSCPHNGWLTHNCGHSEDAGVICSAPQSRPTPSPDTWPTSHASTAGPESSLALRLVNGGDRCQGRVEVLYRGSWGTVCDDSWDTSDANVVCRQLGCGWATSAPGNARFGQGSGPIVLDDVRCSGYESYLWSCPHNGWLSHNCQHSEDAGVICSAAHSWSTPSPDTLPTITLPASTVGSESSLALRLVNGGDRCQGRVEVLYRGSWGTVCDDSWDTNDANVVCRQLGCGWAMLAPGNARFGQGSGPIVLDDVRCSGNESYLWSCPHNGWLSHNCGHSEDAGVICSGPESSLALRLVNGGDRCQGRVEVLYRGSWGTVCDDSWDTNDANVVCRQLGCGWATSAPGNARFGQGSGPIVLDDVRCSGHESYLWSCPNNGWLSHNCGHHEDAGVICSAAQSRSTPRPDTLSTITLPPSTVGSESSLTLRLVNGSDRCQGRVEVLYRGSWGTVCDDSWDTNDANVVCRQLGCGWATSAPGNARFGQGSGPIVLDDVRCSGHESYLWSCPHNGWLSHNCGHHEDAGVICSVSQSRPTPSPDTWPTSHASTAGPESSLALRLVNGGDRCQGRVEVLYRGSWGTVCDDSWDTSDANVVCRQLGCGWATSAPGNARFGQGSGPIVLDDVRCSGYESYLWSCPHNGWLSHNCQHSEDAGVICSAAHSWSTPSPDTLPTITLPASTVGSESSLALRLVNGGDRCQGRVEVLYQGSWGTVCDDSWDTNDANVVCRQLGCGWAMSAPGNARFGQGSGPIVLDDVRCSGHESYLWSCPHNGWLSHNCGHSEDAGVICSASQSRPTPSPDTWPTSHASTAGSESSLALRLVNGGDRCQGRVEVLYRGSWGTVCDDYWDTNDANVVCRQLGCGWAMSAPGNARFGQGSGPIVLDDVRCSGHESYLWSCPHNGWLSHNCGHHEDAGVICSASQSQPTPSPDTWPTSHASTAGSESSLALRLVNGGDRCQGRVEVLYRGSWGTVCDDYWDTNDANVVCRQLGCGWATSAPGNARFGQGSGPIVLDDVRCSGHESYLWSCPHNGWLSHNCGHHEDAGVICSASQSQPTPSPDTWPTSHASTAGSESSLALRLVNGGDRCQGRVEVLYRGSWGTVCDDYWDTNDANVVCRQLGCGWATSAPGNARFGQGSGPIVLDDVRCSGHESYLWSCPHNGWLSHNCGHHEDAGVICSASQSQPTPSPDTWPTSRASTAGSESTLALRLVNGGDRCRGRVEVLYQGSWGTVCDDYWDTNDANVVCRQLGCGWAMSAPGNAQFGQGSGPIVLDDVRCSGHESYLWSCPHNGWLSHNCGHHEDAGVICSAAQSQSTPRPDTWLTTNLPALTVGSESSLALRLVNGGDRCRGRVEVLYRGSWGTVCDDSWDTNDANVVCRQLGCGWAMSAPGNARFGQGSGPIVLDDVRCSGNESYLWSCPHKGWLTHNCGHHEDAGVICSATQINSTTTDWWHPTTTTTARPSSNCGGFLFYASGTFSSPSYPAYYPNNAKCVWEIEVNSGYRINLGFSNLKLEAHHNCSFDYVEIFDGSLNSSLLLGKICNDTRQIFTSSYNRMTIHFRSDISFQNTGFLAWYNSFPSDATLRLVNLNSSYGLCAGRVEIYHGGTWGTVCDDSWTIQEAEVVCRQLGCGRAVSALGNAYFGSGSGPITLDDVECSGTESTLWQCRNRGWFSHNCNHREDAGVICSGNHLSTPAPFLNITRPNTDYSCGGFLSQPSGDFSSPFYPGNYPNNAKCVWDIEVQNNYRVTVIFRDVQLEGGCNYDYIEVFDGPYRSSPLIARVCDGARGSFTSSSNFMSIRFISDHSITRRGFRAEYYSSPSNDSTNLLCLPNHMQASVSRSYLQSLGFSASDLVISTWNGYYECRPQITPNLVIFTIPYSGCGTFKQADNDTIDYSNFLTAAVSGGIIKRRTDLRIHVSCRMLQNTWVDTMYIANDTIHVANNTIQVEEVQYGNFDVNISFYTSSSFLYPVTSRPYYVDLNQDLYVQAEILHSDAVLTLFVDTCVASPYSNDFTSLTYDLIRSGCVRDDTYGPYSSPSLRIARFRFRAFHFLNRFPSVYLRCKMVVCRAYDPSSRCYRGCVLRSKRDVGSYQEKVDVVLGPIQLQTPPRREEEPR

“P1 globular head fragment (A3VP1) (domain or fragment)”: the binding frequency in test [1] amounted to 49%. In test [2], “cell surface-localized P1 on living Streptococcus mutans NG8 cells (from UniProt P23504 39-1532) (natural protein)” registered an adhesion force of 100 to 1500 pN. The substance “full-length P1 adhesin of Streptococcus mutans (from UniProt P23504 39-1532) (natural protein)” came in with a mean adhesion force in test [1] of 46 pN. The substance further gave a most probable adhesion force in test [3] of 57 pN.

Values taken from paper PMC4369792.
